Assay results reported in the nanobody polyreactivity screen of Harvey et al. (2022).

Test: yeast display, Sf9 membrane polyspecificity reagent, FACS + sequencing; frameworks hold sequencing errors
How it was run: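 In a synthetic yeast display library (Saccharomyces cerevisiae BJ5465), nanobody expression was induced with galactose for 36–48 hours. FACS gates were set low and high (top ~1%) using anti-HA fluorescence for expression and streptavidin fluorescence for binding of the Sf9 membrane reagent. Each polyreactivity label is drawn from the gate of origin.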

| Sequence | polyreactivity (PSR sort gate) |
| --- | --- |
| QDQLVESGGGLVQAGGSLRLSCDASGSIIQSYTMGWYRQAPGKERELVAAIDSGGSTYYADSVKGRFTISRDNAKNTVYLQMNSLKPEDTAVYYCAAEPDTYWYTYDYWGQGTQVTVSS | low polyreactivity |
| QVQLVESGGGLVQAGGSLRLSCAASGRIFWGNAMGWYRQAPGKERELVAAITRRGGTTFYADSVKGRFTISRDNAKNTVYLQMNSLKPEDTAVYYCAARRYGQYDGYDSWGQGTQVTVSS | high polyreactivity |
| QVQLVESGGGLVQAGGSLRLSCAASGIIFPDYVMGWYRQAPGKERELVATITNDSSTTYADSVKGRFTISRDNAKNTVYLQMNSLKPEDTAVYYCAAPVDYQGDYWGQGTQVTVSS | low polyreactivity |
| QVQLGDSGGGLVQAGGSLRLSCAASGFSIFTYAMGWYRQAPGKERELVAAITTGGSTNYADSVKGRFTISRDNAKNTVYLKMNSLKPEDTALYYCAALRVSVILLVRLDYWGQGTQVTVSS | low polyreactivity |
| QVQLQESVGGQVQAGVSLRLICAASCTISQEDWMGWYRQAPAKEREFVAAIGLGSNTNYADSLKGRFTISRDNAKNTVDLQMNSLKPEDTAVYYCAVSVWQYSDHVYRGQGTQVTVSS | low polyreactivity |
| QVQLVESGGGLVQAGGSLRLSCAASGRIFRYYTMGWYRQAPGKERELVAAISWTGGRTYYADSVKGRFTISRDNAKNTVYLQMNSLKPEDTAVYYCAATNRYYIFDYWGQGTQVTVSS | high polyreactivity |
| QVQLVESGGGLVQAGGSLRLSSAASGSTFPYVKGWYRQAPGKESEFVAAISQRTGSTYYADSVKGRFTISRDNAKNTVYLQMNSLKPEDTAVYYCAKPGYLRPSRYDYWGQGTQVTVSS | high polyreactivity |
| QVQLVESGGGLVQAGGSLRLSSAAAGSTFGRYAMGWYRQAPGKEREFVAAITQGGTNTYYADSVKGRFTISRDNAKNTVYLQMNSLKPEDTAVYYCARVRRYPLRYNYWGQGTQVTVSS | high polyreactivity |
| QVQLVESGGGLVQAGGSLRLICAASGFTFADNSMAWYRQAPGKEREFVASITYSTGSTYADSEKGRVTISRDNAKNTVYLEMHSLKPEDTAVYYCAVDNISNWAVENDDWGQGTLVTVSS | low polyreactivity |
| QVQLVESGGGLVQAGGSLRLSCAASGSTFREYAMGWSRQAPGKERELVAAISSGDSTNYADSVKGRFTISRDNAKNTVYLQMNSLKPEDTAVYYCAADAPGAAAVQNDYWGQGTQVTVSS | low polyreactivity |
| QVQLVESGGGLVQAGGSLGLSCAASGFTVYRYAMGWSRQAPGKERELVARTYYADSVKRRFTISRDNAKNTVYLQMNSLKPEDTAVYYCNIDLELEYRYEYWGQGTQVTVSS | low polyreactivity |
| QVQLVESGGGLVQAGGSLRLSCAASGFIFWVYAMGWYRQAPGKESELVAAITSGGRTYYADSEKGRFTISRDNAKNTVYLQMNSLKPEDTAVYYCAARWHYGYYSYYYWGQGTQVTVSS | high polyreactivity |
| QVQLVETGGGLVQEGGSLRLSCAASGRTFYSYAMGWYRQAPGKERELVARISSGGSTNYADSVKGRFTISRDNAKNTVYFQMNSLKPEDTAVYYCAAVRHRAMDYWGQGTQVTVSS | low polyreactivity |
| QVQLVESGGGLVQAGGSLRLSCAASGRIFSLYAMGWYRQAPGKERELDAAITWSSGSTYYADSVKGRFTISRDNAKNTVYLQMNSLKPEDTAVYYCAARVFTLLGYSFEYWGQGTQVTVSS | low polyreactivity |
| QVQLVESGGGLVQAGGSLRLSCAASGIIFDGNAMGWYRQAPGKERELVAAISSGGSTNYADSVKGRFTISRDNAKNTVYLQMNSLKPEDTAVYYCAARYTGKYEREYIYWGQGTQVTVSS | high polyreactivity |
| QVQLVESGGGLVQAGGSLRLSCAASGSTIGAYAMGWYRQAPGKERELVAAITFSVGSTYYADSVKGRFTISRDNAKNTVYLQMNSLKPEDTAVYYCAADYYIYRSKYYQSTIQGYYYWGQGTQVTVSS | high polyreactivity |
| QVQLVESGGGLVQAGGSLRLSCAASGSILLFYVMGGYRQAPGKERELVAAITSSGGGTYYADSVKGRFTISRDNAKNTVYLQMNSLKPEDTALYYCNADDDYYGESYGPEFDYWGQGTQVTVSS | low polyreactivity |
| QVQLVESGGGLVQAGGSLRLSCAASGSILYYNAMGWYRQAHGKERELVAAISTRGGSTYYADSVKGRFTISRDNAKNTVYLQMNSLKPEDTAVYYCAADHNVIWGYYYWGQGTQVTVSS | high polyreactivity |
| QVQLVESGGGLVQAGGSLRLICAASGFIFLVNAMGWYRQAPGKERELVAAISLSTTSTYYADSVKGRFTISRDNAKNTVYLQMNSLKPEDTAVYYCAADHWGVGAPTYGQYTTHDYWGQGTQVTVSS | low polyreactivity |
| QVQIVESGGGLVQAGGSLRLSCAASGSTIIRNAMGWSRQAPRKERELVAAISTSGGRTHYADSVKGRFTISRDNAKNTVYLQMNSLKPEDTAVYYCASRGKGHYYYWGQGTQVTVSS | high polyreactivity |
| QVQLVESGGGLVQAGGSLRLSCAATGSIFNFYAMGWYRQAPGKERELVAAIDQNGGSTYYADSVKGRFTISRDNAKNTVYLQMNSLKPVDTAVYYCAKDHQSGRRTYTYRYDYWGQGTQVTVSS | low polyreactivity |
| QVHLEESGGGLVQAGGSLRLSCAASGRTFYANTMGWYRPAPGKERELVAGITSGGSTSYADSVKGRFTISRDNAKNTVYLQMNSLKPEDTAVYYCAAQFYRYTATGYYADGYWGQGTQVTVSS | low polyreactivity |

| Sequence | polyreactivity (PSR sort gate) |
| --- | --- |
| QVQLVESGGGLVQAGGSLRLSCAASGRIFKWYAMGWSRQAPGKEREFVAGISGSAGRTYYADSVKGRFTISRDNAKNTVYLQMNSLKPEDTAVYYCAKDYNRPVEDWAKVNGYDYWGQGTQVTVSS | low polyreactivity |
| QVQLVESGGGLVQAGGSLRLSCAASGSIFSRNVMGWSRQAPGKERELVAGISWRGGRTYYADSVKGRFTISRDNAMITVYLQMTSLKPEDTAVYYCAKGGVSYGEGDYWGQGTQVTVSS | high polyreactivity |
| QVQLVESGGGLVQAGGRLRLSCAASGSIFYYYAMGWYRQAPGTERELVAAISRGGNTYYADSVKGRFTNSRDNAKNTVYLQMNSLKPEDTAVYYCNARPPNKRYKYGYWGQGTQVTVSS | high polyreactivity |
| QDQLGESGGGLVQAGGSLRLSCAASGRTFNGYAMGWYRQAPGKVREFVAAITSNGARTYYADSVKGRFTISRDNAMNSVYLQMNSLKPEDTAVFYCAKRFARRSQRYDYWGQGTQVTVSS | high polyreactivity |
| QVQLVESGGGLVQAGGSLRLSCAASGSTFNRYAMGWYRQAPGKERELVASISWGGGRTYYADSVKGRFTISRDNAKNTVYLQMNSLKPEDSAVYYCAAGGALASQWSTKLYDYWGQGTQVTVSS | low polyreactivity |
| QVQLVESGGGLVQAGCSLRLSCAASGRIIDGYAMGWYRQAPGKEREFVAAITWIGGRTYYADSVKGRFTISRDNAKITVYLHMNSLKPEDTAVYYCAVVQSRYRGRFDYWGQGTQVTVTS | high polyreactivity |
| QVQLVESGGGLVQAGGSLRLSCAASGLIFGINAMGWYRQAPGKERELVASISRSTTRTYYADSVKGRFTISRDNAKNTVYLQMNSLKPEDTAVYYCAARQSPNRWMGYWGQGTQVTVSS | high polyreactivity |
| QVQLVESGGGLVQAGGSLRLSCPASGSTFRYYAMAWYRQAPGKERELVAGISSSGGSTYYADSVKGRFTISRDNAKNTVYLQMNSLKPEDTAVYYCNAARGTSRSLAVFADYDYWGQGTQVTVSS | high polyreactivity |
| QVQLVESGGGLVQAGGSLRLSCAASGITFRGYTMGWYRQAPGKERELVARIRSSDGSTYYADSVKGRFTISRDNAKNTVYLQMNSLKPEDTAVYYCNADRRGRALKYYSWGQGTQVTVSS | low polyreactivity |
| QVQLVESGGGLVQAGGSLRLSCADSGSIFLPYAMGCYRKAPGKERELVAAITWGGDSTYADSVKGRFTISRDNAKNTVYLQMNSQKPEDTAVYYCAAGAGFESDYWGQGTQVTVSS | low polyreactivity |
| QVQLVDSGGGLVQAGGSLRLRCAASGRNFGTNAMGWYRPAPGKERELVATITRGGGNTYYADSVKGRFTISRDNAKNTVYLQMNSLKPEDTAVYYCAAGVIFYVGTRVYAYDYWGQGTQLTVSS | low polyreactivity |
| QVQLVESGGGLVQAGGSLRLSCAASGRIFGSYAMGWYRQAPGKERELVAAISGSGSRTYYADSVKGRFTISRDNAKNTVYLQMNSLKPEDTAVYYCNKYRFRVYPFGYWGQGTQVTVSS | high polyreactivity |
| QVQLVESGGGLVQAGGSLRLSCAASGSTFGRYAMGWYRQAPGKEREMVAAISQRGGSTYYADSVKGRFTISRDYAKNTVYLQMNSLKPEDTAVYYCAAYYTRIRNHYGYWGQGTQVTVSS | high polyreactivity |
| QVQLVESGGGLVQAGGSLRLSCAASGFTFPWYAMGWYRQAPGKERELVAALTGSGGSTDYADSVKGRFTISRDNAKNTVYLQMNSLKPEDTAVYYCNAGKTIDYRDGVGYDHWGQGTQVTVSS | low polyreactivity |
| QVQLVESGGGLVQAGGSLRLSCAASGRTFVKNAMGWYRQAPGKERELVAVISQSGGSTYYADSVKGRFTISRDNAKNTVYLQMNCLKPEDTAVYYCAARYSYYRQGDSWYNYNYWGQGTQVTVSS | high polyreactivity |
| QVQLVESRGGLVQAGGSLRLSCAASGSIFLVYAMGWYRQAPGKERELVAAIDSSGGSTYYADSVKGRFTISRDNAKNTVYLQMNSLKREDTAVYYCAVYIRYPWSGRYDYWGQGTQVTVSS | high polyreactivity |
| QVQLVESGGGLVQAGGSLRLICAASGRTFRYYAMGWYRQAPGKERELVAAITTGSSTYYADSVKGRFTISRDNAKNTVYLQMNSLKPEDTAVYYCNVFQGTRYGYWGQGTQVTVSS | low polyreactivity |
| QVQLVESGGGLVQAGGSLRLSCAASGSTFRFNAMGWYRQAPGKERELVAAITGIGGITYYADSVKGRFTISRDNAKNTVYFQMNSLKPEDTAVYYCNAAGGYKPYLQDVDSRYDYWGQGTQVTVSS | high polyreactivity |
| QVQHVESGGGLVQAGGSLRLSCAASGRIFYLNAMGWYREAPGKERELVAAINTSGDSTYYADSVKGRFTISRDNAKNTVYLQMNSLKPVDTAVFYCAAYVIGPDQFIYDYWGQGTQVTVSS | low polyreactivity |
| QVQLVESGGGLVQAGGSLRLSCAPSGLIFYHYAMGWYRQAPGKERELVAGITRSGGSTYYADSVKGRFTISRDNAKNTVYLQMNSLKPEDTAVYYCAAKSLTTGKYGKYGYWGQGTQVTVSS | high polyreactivity |
| QVQLVESGGGLVQAGGSLRLSCAASGSTFVSYAMGWYRQAPGKERELVAVISYRGGGTYYADSVKGRFTISRDNAKNTVYLQMNSLKPEDTAVYYCNAELWVLVSSYSYHYDGFDYWGQGTQVTVSS | low polyreactivity |
